Experimental data published in patent US20240066131A1 (Protagonist Therapeutics, Inc., priority 2020, published 2024).
Where two headings read alike, the source gives them in different places. Positions of bridges follow the written chain, without caps; N, C: chain ends. Non-standard residues stand in square brackets, D forms with d. Residues, ends and D or L forms follow the SMILES beside them. Groups on a side chain read outwards from the residue. *: point of attachment. C18 diacid = O=C(O)CCCCCCCCCCCCCCCCC(=O)*; Dip = N[C@H](C(=O)O)C(c1ccccc1)c1ccccc1; Palmitoyl = CCCCCCCCCCCCCCCC(=O)*; β3hF = N[C@H](CC(=O)O)Cc1ccccc1; Isovaleryl = CC(C)CC(=O)*; LAc = not defined here; AEEA = NCCOCCOCC(=O)O; Ahx = NCCCCCC(=O)O

Legend:
[1] = molecular target: T1, human ferroportin (SLC40A1) fused in frame with GFP, stably expressed in HEK293 cells (human) (UniProt Q9NP59); assay: cell-based or functional assay
T1 sequence (looked up): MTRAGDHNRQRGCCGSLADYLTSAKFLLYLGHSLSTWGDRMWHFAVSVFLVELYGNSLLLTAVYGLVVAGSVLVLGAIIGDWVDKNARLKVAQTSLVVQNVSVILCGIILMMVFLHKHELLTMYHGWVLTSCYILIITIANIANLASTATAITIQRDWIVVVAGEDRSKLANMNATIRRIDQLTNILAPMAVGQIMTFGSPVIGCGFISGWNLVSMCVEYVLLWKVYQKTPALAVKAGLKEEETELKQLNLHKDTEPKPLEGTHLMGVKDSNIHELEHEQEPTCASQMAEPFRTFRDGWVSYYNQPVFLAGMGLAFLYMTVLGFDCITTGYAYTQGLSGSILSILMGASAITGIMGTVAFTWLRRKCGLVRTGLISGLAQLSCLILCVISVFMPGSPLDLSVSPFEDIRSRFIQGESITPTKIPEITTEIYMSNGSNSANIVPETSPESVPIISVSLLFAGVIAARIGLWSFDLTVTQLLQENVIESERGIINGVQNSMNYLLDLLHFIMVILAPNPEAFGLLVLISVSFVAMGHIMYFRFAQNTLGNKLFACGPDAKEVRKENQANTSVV

[2] = molecular target: T2, ferroportin (Homo sapiens, UniProt Q9NP59); assay: FPN activity assay: internalization/degradation of ferroportin-GFP in stably transfected HEK293 cells (loss of GFP fluorescence); assay type: cell-based; settings: Table 6A; read-out: FPN EC50
T2 sequence (Q9NP59 1-571): T1 sequence (looked up)
Experimental: Following internalization, the ferroporin protein is degraded.
A retro inverse peptide is a peptide with a reversed sequence in all D amino acids. An example is that Hy-Glu-Thr-His-NH2 becomes Hy-DHis-DThr-DGlu-NH2. The EC50 of these reference compounds for ferroportin internalization/degradation was determined according to the FPN activity assay described above. These peptides served as control standards.

[3] = molecular target: T2, ferroportin; assay: T47D cell-based ferroportin internalization assay in presence of mouse serum albumin (MSA), AF647 detection peptide, flow cytometry; parameters: a human breast carcinoma adherent cell line which endogenously expresses ferroportin; host or cells: T47D; settings: second Table 6D, T47D/MSA data; with mouse serum albumin
Experimental: The potency of the peptides in causing ferroportin internalization was evaluated in a T47D cell-based assay. […] In this internalization assay, the potency of the test peptides was evaluated in presence of serum albumin which is the main protein component in the blood. T47D cells were maintained in RPMI media (containing required amount of fetal bovine serum) and regularly sub-cultured. […] The test peptide dilution series were allowed to incubate at room temperature for 30 min. Then the media was aspirated from the 96-well cell plate and test peptide dilution series were added. After 1 hr incubation, the media with test peptides was aspirated out and A1F647-conjugated detection peptide was added at fixed concentration of 200 nM. […] The cells were washed again after a 2 hr incubation in preparation for flow cytometry analysis. The Median Fluorescence Intensity (MFI) of the AF647-positive population was measured (after removing dead cells and non-singlets from the analysis). The MFI values were used to generate a dose-response curve and obtain IC50 potencies for the test peptides. The IC50 potencies were calculated by using 4-parameter non-linear fitting function in Graphpad Prism (Table 6D).

[4] = molecular target: ferroportin endogenously expressed on T47D cells (HTB 133, ATCC) (human) (UniProt Q9NP59); assay: cell-based or functional assay
[5] = molecular target: T3, ferroportin endogenously expressed on T47D cells (HTB 133, ATCC) (human, UniProt Q9NP59 1-571); assay: cell-based or functional assay
T3 sequence (looked up): T1 sequence (looked up)

[6] = molecular target: T4, human ferroportin (SLC40A1) fused in frame with GFP, stably expressed in HEK293 cells (human, UniProt Q9NP59 1-571); assay: cell-based or functional assay
T4 sequence (looked up): T1 sequence (looked up)

[7] = molecular target: T3, ferroportin endogenously expressed on …; assay: cell-based or functional assay; remark: listed apart in the source
[8] = molecular target: T4, human ferroportin (SLC40A1) fused in …; assay: cell-based or functional assay; remark: listed apart in the source
[9] = molecular target: T1, human ferroportin (SLC40A1) fused in frame with GFP, stably expressed in HEK293 cells (human); assay: cell-based or functional assay; remark: listed apart in the source

## RI-Mini Hepcidin: Hy-DPhe-DIle-DCys-DIle-DPro-DPhe-DHis-DThr-DAsp-NH2 (peptide)
[1]
  Potency EC50 (nM): > 10000 nM

## CC[C@H](C)[C@H](NC(=O)[C@H](C)NC(=O)[C@@H]1CCCN1C(=O)[C@@H](NC(=O)[C@H](Cc1c[nH]cn1)NC(=O)[C@@H](NC(=O)[C@H](CCC(=O)O)NC(=O)CC(C)C)[C@@H](C)O)C(c1ccccc1)c1ccccc1)C(=O)N[C@@H](CCCCNC(=O)COCCOCCNC(=O)COCCOCCNC(=O)CCCCCNC(=O)CCCCCCCCCCCCCCCCC(=O)O)C(=O)N[C@H](CC(N)=O)Cc1ccccc1 [compound 76] (Isovaleryl-ETH[Dip]PAIK([AEEA-AEEA-Ahx-C18 diacid])[β3hF]-NH2)
[2]
  DC50: 150 nM
[3]
  IC50: 143 nM

## Isovaleric Acid-Dap-T-H-[Dpa]-P-A-I-E-[bhPhe]-[Lys(Ahx_Palm)]-R-NH2 (peptide)
[4]
  T47D MSA IC50: 36.4 nM

## Isovaleric Acid-K-T-H-[Dpa]-P-E-[Lys(Ahx_Palm)]-NH2 (peptide)
[4]
  T47D MSA IC50: 101 nM

## CCCCCCCCCCCCCCCC(=O)NCCCCCC(=O)NCCCC[C@H](NC(=O)[C@@H]1CCCCNC(=O)CC[C@H](NC(=O)CC(C)C)C(=O)N[C@@H]([C@@H](C)O)C(=O)N[C@@H](Cc2c[nH]cn2)C(=O)N[C@@H](C(c2ccccc2)c2ccccc2)C(=O)N2CCC[C@H]2C(=O)N[C@@H](C)C(=O)N[C@@H]([C@@H](C)CC)C(=O)N1)C(N)=O [compound 314] (Isovaleryl-ETH[Dip]PAIKK([Ahx-Palmitoyl])-NH2; lactam 1-8)
[3]
  IC50: 10.6 nM

## CCCCCCCCCCCCCCCC(=O)NCCCCCC(=O)NCCCC[C@H](NC(=O)[C@@H]1CCC(=O)NCCCC[C@H](NC(=O)CC(C)C)C(=O)N[C@@H]([C@@H](C)O)C(=O)N[C@@H](Cc2c[nH]cn2)C(=O)N[C@@H](C(c2ccccc2)c2ccccc2)C(=O)N2CCC[C@H]2C(=O)N[C@@H](C)C(=O)N[C@@H]([C@@H](C)CC)C(=O)N1)C(N)=O [compound 309] (Isovaleryl-KTH[Dip]PAIEK([Ahx-Palmitoyl])-NH2; lactam 1-8)
[3]
  IC50: 31.2 nM

## CCCCCCCCCCCCCCCC(=O)NCCCCCC(=O)NCCCC[C@H](NC(=O)C[C@H](Cc1ccccc1)NC(=O)[C@H]1CCCCNC(=O)CC[C@H](NC(=O)CC(C)C)C(=O)N[C@@H]([C@@H](C)O)C(=O)N[C@@H](Cc2c[nH]cn2)C(=O)N[C@@H](C(c2ccccc2)c2ccccc2)C(=O)N2CCC[C@H]2C(=O)N[C@@H](C)C(=O)N[C@@H]([C@@H](C)CC)C(=O)N1)C(=O)N[C@@H](CCCNC(=N)N)C(N)=O [compound 56] (Isovaleryl-ETH[Dip]PAI[dK][β3hF]K([Ahx-Palmitoyl])R-NH2; lactam 1-8)
[3]
  IC50: 8.9 nM

## Isovaleric Acid-K-T-H-[Dpa]-P-E-[bhPhe]-[Lys(Ahx_Palm)]-NH2 (peptide)
[4]
  T47D MSA IC50: 15.6 nM

B1: Isovaleric Acid-E-T-H-[Dpa]-P-[Lys(Gal-I-[Lys(Ahx_Palm)]-[bhPhe]-NH2 (peptide)
peptide: Isovaleryl-ETH[Dip]PK(Gal)IK([Ahx-Palmitoyl])[β3hF]-NH2
[5]
  T47D IC50: 35.5 nM
[6]
  FPN IC50: 14.3 nM

B2: Isovaleric Acid-[Lys(LAc-T-H-[Dpa]-P-A-I-[Lys(Ahx_Palm)]-[bhPhe]-NH2 (peptide)
peptide: Isovaleryl-K(LAc)TH[Dip]PAIK([Ahx-Palmitoyl])[β3hF]-NH2
modifications: reading uncertain
[7]
  T47D IC50: 284 nM
[8]
  FPN IC50: 27.5 nM

B3: Isovaleric Acid-E-T-H-[Dpa]-P-A-[Lys(Gal-[Lys(Ahx_Palm)]-[bhPhe]-NH2 (peptide)
peptide: Isovaleryl-ETH[Dip]PAK(Gal)K([Ahx-Palmitoyl])[β3hF]-NH2
[5]
  T47D IC50: 19.1 nM
[6]
  FPN IC50: 42 nM

B4: Isovaleric Acid-E-T-H-[Dpa]-[Lys(Ahx_Palm)]-N_Butyl_Phe (peptide)
peptide: Isovaleryl-ETH[Dip]K([Ahx-Palmitoyl])-N_Butyl_Phe
[7]
  T47D IC50: 464 nM
[8]
  FPN IC50: 62.2 nM

B5: Isovaleric Acid-E-T-H-[Dpa]-P-A-d[Lys(Gal-[Lys(Ahx_Palm)]-[bhPhe]-NH2 (peptide)
peptide: Isovaleryl-ETH[Dip]PA[dK](Gal)K([Ahx-Palmitoyl])[β3hF]-NH2
[5]
  T47D IC50: 4.05 nM
[6]
  FPN IC50: 30.6 nM

B6: Mini-Hepcidin 1-9: Hy-…-NH2 (peptide, from a related filing)
peptide: H-DTHFPICIF-NH2
[9]
  Potency EC50: 712 nM

B7: Isovaleric Acid-[Lys(Glu-T-H-[Dpa]-P-A-I-[Lys(Ahx_Palm)]-[bhPhe]-NH2 (peptide)
peptide: Isovaleryl-K(Glu)TH[Dip]PAIK([Ahx-Palmitoyl])[β3hF]-NH2
[7]
  T47D IC50: 229 nM
[8]
  FPN IC50: 27 nM
